Test results taken from paper PMC8211829 (Biochimica et biophysica acta. Biomembranes, 2021).

B1: apoE(201–299) single Cys variant S223C (domain or fragment)
chain: QPLQERAQAWGERLRARMEEMGCRTRDRLDEVKEQVAEVRAKLEEQAQQIRLQAEAFQARLKSWFEPLVEDMQRQWAGLVEKVQAAVGTSAAPVPSDNH
B2: apoE(201–299) single Cys variant at E255 (domain or fragment)
chain: QPLQERAQAWGERLRARMEEMGSRTRDRLDEVKEQVAEVRAKLEEQAQQIRLQACAFQARLKSWFEPLVEDMQRQWAGLVEKVQAAVGTSAAPVPSDNH

Target: the molecule itself
Assay: cross-linking

Protein	binding result
B1	binds
B2	binds
